Assay results from patent US20250051417A1.
Each block holds one substance with its values, some of them ahead of it.

Key:
[1] = target: Biotinylated peptide-Human Leukocyte Antigen complexes (pMHC); experiment: flow cytometry of stained beads, APC MFI calibrated with Quantum Simply Cellular beads; silica bead
[2] = target: Biotinylated peptide-Human Leukocyte Antigen complexes (pMHC); experiment: flow cytometry of stained beads, APC MFI calibrated with Quantum Simply Cellular beads; polymeric bead
[3] = target: biotinylated Monomer MHC (HLA-A* 02:01 SLC45A2 (Biolegend, Custom Product, … (SEQ ID NO: 2)) (human)); experiment: flow cytometry of stained beads, calibrated; divided by the bead surface area
[4] = target: biotinylated Monomer MHC (HLA-A* 02:01 SLC45A2 (Biolegend, Custom Product, … (SEQ ID NO: 2)) (human)); experiment: flow cytometry of stained beads, calibrated; divided by the nominal bead surface area
[5] = target: costimulation antibodies on the antigen presenting beads (biotinylated anti-CD28 and biotinylated anti-CD2); experiment: flow cytometry of stained beads, APC intensity calibrated with Quantum Simply Cellular beads; assumes 1 detection antibody per costimulation antibody
[6] = target: costimulation antibodies on the antigen presenting beads (biotinylated anti-CD28 and biotinylated anti-CD2); experiment: flow cytometry of stained beads, calibrated; divided by the bead surface area
[7] = target: costimulation antibodies on the antigen presenting beads (biotinylated anti-CD28 and biotinylated anti-CD2); experiment: flow cytometry of stained beads, calibrated; divided by the nominal bead surface area

Substance: anti-HLA-A conjugated to APC (Clone BB7.2, Biolegend) (antibody)
Ligands/Bead (detection antibodies bound per bead) [1]: 604000 Ligands/Bead
Ligands/sq um (Ligands/sq um) [1]: 12000
Ligands/Bead (detection antibodies bound per bead) [2]: 487000 Ligands/Bead
Ligands/sq um (Ligands/sq um) [2]: 19800

pMHC Density (molecules/sq micron) [3]: 14800
pMHC Density (molecules/sq micron) [4]: 19800
Substance: APC-conjugated anti-HLA-A (Biolegend, Catalog Number 343308) (antibody)

Costimulation antibodies/bead (anti-Mouse IgG1 antibodies bound per bead) (antibodies/bead) ([5]; M-280 convoluted polymer beads): 427000
Costimulation antibodies/bead (anti-Mouse IgG1 antibodies bound per bead) (antibodies/bead) ([5]; substantially spherical silica beads): 845000
Costimulation Antibody Density (molecules/sq micron) [6]: 15600
Costimulation Antibody Density (molecules/sq micron) [7]: 17300
Substance: APC-conjugated monoclonal anti-Mouse-IgG1 (Biolegend, Catalog Number 406610) (antibody)
